{"source": "patent US20260266848A1", "about": "“COMPOSITIONS AND METHODS FOR DIAGNOSING AND TREATING DYSTONIA” (Duke University, priority 2023, published 2026)", "key": {"DYT-TOR1A MEF EVs": {"test_system": "DYT-TOR1A MEF EVs", "test": "Quantitative LC-MS/MS proteomics of EVs from drug-treated DYT-TOR1A MEF cultures (ritonavir, salubrinal)", "assay_type": "cell-based, mouse", "design": "key to RTV Corrective Direction / RTV Corrective Direction, Grwd1 / RTV Corrective Direction, Srrm2 / RTV Corrective Direction, Rbm17 / RTV Corrective Direction, Dcaf8 / RTV Corrective Direction, Edil3 / RTV Corrective Direction, Timp3 / RTV Corrective Direction, Heatr3 / RTV Corrective Direction, Brd4 / RTV Corrective Direction, P3h4 / RTV Corrective Direction, Pacsin3 / RTV Corrective Direction, Naa50 / RTV Corrective Direction, Lpar6 / RTV Corrective Direction, Ndrg1 / RTV Corrective Direction, Kntc1 / RTV Corrective Direction, Cdk11b / RTV Corrective Direction, Sumo1 / RTV Corrective Direction, Lsm4 / RTV Corrective Direction, Hmga2 / RTV Corrective Direction, Cstf1 / RTV Corrective Direction, Tes / RTV Corrective Direction, Sbno1 / RTV Corrective Direction, Unc119b / RTV Corrective Direction, Cfdp1 / RTV Corrective Direction, Sec61b: YES = protein abundance effect opposite to DYT/WT", "settings": "EV protein abundance; for RTV Corrective Direction: DYT + RTV (ritonavir) vs DYT, direction compared with DYT/WT; for DYT + RTV/DYT Cohen's d: ritonavir (RTV)-treated DYT vs DYT"}, "WT MEF EVs": {"test_system": "WT MEF EVs", "test": "Quantitative LC-MS/MS proteomics of EVs from ISRIB-treated WT MEF cultures", "assay_type": "cell-based, mouse", "design": "key to ISRIB and DYT Parallel Direction / ISRIB and DYT Parallel Direction, Ctdsp1 / ISRIB and DYT Parallel Direction, Pcdh19 / ISRIB and DYT Parallel Direction, Tspan7 / ISRIB and DYT Parallel Direction, Myo1e / ISRIB and DYT Parallel Direction, Plpp3 / ISRIB and DYT Parallel Direction, Sh3bp4 / ISRIB and DYT Parallel Direction, Dnajc7 / ISRIB and DYT Parallel Direction, Drg1 / ISRIB and DYT Parallel Direction, Maea: YES = protein abundance effect similar to DYT/WT", "settings": "EV protein abundance; for WT + ISRIB/WT Cohen's d: ISRIB-treated WT vs WT"}}, "data": [{"molecule": "Uba3 (protein, UniProt Q8C878 2-462, looked up) NEDD8-activating enzyme E1 …: ADGEEPEKKRRRIEELLAEKMAVDGGCGDTGDWEGRWNHVKKFLERSGPFTHPDFEPSTESLQFLLDTCKVLVIGAGGLGCELLKNLALSGFRQIHVIDMDTIDVSNLNRQFLFRPKDVGRPKAEVAAEFLNDRVPNCNVVPHFNKIQDFNDTFYRQFHIIVCGLDSIIARRWINGMLISLLNYEDGVLDPSSIVPLIDGGTEGFKGNARVILPGMTACIECTLELYPPQVNFPMCTIASMPRLPEHCIEYVRMLQWPKEQPFGDGVPLDGDDPEHIQWIFQKSIERASQYNIRGVTYRLTQGVVKRIIPAVASTNAVIAAVCATEVFKIATSAYIPLNNYLVFNDVDGLYTYTFEAERKENCPACSQLPQNIQFSPSAKLQEVLDYLTNSASLQMKSPAITATLEGKNRTLYLQSVTSIEERTRPNLSKTLKELGLVDGQELAVADVTTPQTVLFKLHFT", "values": [{"measurement": "RTV Corrective Direction", "setting": "DYT-TOR1A MEF EVs", "value": "YES"}, {"measurement": "DYT + RTV/DYT Cohen's d", "setting": "DYT-TOR1A MEF EVs", "value": 10.01}, {"measurement": "WT + ISRIB/WT Cohen's d", "setting": "WT MEF EVs", "value": "−1.68"}, {"measurement": "ISRIB and DYT Parallel Direction", "setting": "WT MEF EVs; WT + ISRIB vs WT, direction compared with DYT/WT", "value": "YES"}]}, {"molecule": "Scarb2 (protein, UniProt Q14108 1-478, looked up) Lysosome membrane protein 2: MGRCCFYTAGTLSLLLLVTSVTLLVARVFQKAVDQSIEKKIVLRNGTEAFDSWEKPPLPVYTQFYFFNVTNPEEILRGETPRVEEVGPYTYRELRNKANIQFGDNGTTISAVSNKAYVFERDQSVGDPKIDLIRTLNIPVLTVIEWSQVHFLREIIEAMLKAYQQKLFVTHTVDELLWGYKDEILSLIHVFRPDISPYFGLFYEKNGTNDGDYVFLTGEDSYLNFTKIVEWNGKTSLDWWITDKCNMINGTDGDSFHPLITKDEVLYVFPSDFCRSVYITFSDYESVQGLPAFRYKVPAEILANTSDNAGFCIPEGNCLGSGVLNVSICKNGAPIIMSFPHFYQADERFVSAIEGMHPNQEDHETFVDINPLTGIILKAAKRFQINIYVKKLDDFVETGDIRTMVFPVMYLNESVHIDKETASRLKSMINTTLIITNIPYIIMALGVFFGLVFTWLACKGQGSMDEGTADERAPLIRT", "values": [{"measurement": "RTV Corrective Direction", "setting": "DYT-TOR1A MEF EVs", "value": "YES"}, {"measurement": "DYT + RTV/DYT Cohen's d", "setting": "DYT-TOR1A MEF EVs", "value": 0.24}, {"measurement": "WT + ISRIB/WT Cohen's d", "setting": "WT MEF EVs", "value": 0.09}]}, {"molecule": "Slc44a1 (protein, UniProt Q6X893 2-653, looked up) Choline transporter-like …: GCCSSASAAQSSKREWKPLEDRSCTDIPWLLLFVLFCIGMGFICGFSVATGAAARLVSGYDSYGNICGQRNAKLEAIPNSGLDHTHRKYVFFLDPCNLDLINRKIKSIALCVAACPRQELKTLSDVQKFAEINGSALCSYNIKPSEYTLTSKSSGFCPKLPVPASAPIPFFHRCAPVNISCYAKFAEALITFVSDNSVLHRLISGVMTSKEIILGLCLLSLVLSMILMVIIRYISRVLVWILTVLVILGSLGGTGVLWWLYAKQRRSPKEAVIPEQLQIAEDNLRALLIYAISATVFTVILFLIMLVMRKRVALTIALFHVAGKVFIHLPLLVFQPFWTFFALVLFWAYWIMTLLFLGTTGSAVQNEQGFVEYKISGPLQYMWWYHVVGLIWISEFILACQQMTVAGAVVTYYFTRDKRNLPFTPILASVNRLIRYHLGTVAKGSFIITLVKIPRMVLMYIHSQLKGKENACARCMLKSCICCLWCLEKCLSYLNQNAYTATAINSTNFCTSAKDAFVILVENALRVAAINTVGDFMLFLGKVLIVCSTGLAGIMLLNYQQDYTVWVLPLIIVCLFAFLVAHCFLSIYEMVVDVLFLCFAIDTKYNDGSPGREFYMDKVLMEFVENSRKAMKEAGKGGAADARELKPMLRKR", "values": [{"measurement": "RTV Corrective Direction", "setting": "DYT-TOR1A MEF EVs", "value": "YES"}, {"measurement": "DYT + RTV/DYT Cohen's d", "setting": "DYT-TOR1A MEF EVs", "value": 0.84}, {"measurement": "WT + ISRIB/WT Cohen's d", "setting": "WT MEF EVs", "value": 0.80}]}]}
